This note sets out measurements from paper PMC3553968 (Nucleic Acids Research, 2012).

B1: Flag-Noc2p (natural protein)
chain: MGKVSKSTKKFQSKHLKHTLDQRRKEKIQKKRIQGRRGNKTDQEKADAAGTREQQQLKKSAKEEVFKDMSVETFFEKGIEIPKENKKLKKKTTKEQSDEDSSSSEEEEDMGQSMAKLAEKDPEFYKYLEENDKDLLDFAGTNPLDGIDSQDEGEDAERNSNIEEKSEQMELEKEKIELSLKLVRKWKKQLHDSPSLKLLRNIISAFKVAVNLNKEENIEDYKYAITDEKAFHELMFMVLKDVPQAIQKMAPYKIVKGARTLPNGGNVSRVSSIVKSHAGSLLILLNDITNTETAALVLHSVNELMPYLLSYRRILKELIKSIVGVWSTTRELETQIASFAFLINTTKEFKKSMLETTLKTTYSTFIKSCRKTNMRSMPLINFQKNSAAELFGIDEVLGYQVGFEYIRQLAIHLRNTMNATTKKSSKINSAEAYKIVYNWQFCHSLDFWSRVLSFACQPEKENGSESPLRQLIYPLVQVTLGVIRLIPTPQFFPLRFYLIKSLIRLSQNSGVFIPIYPLLSEILTSTAFTKAPKKSPNLAAFDFEHNIKCTQAYLNTKIYQEGLSEQFVDLLGDYFALYCKNIAFPELVTPVIISLRRYIKTSTNVKLNKRLSTVVEKLNQNSTFIQEKRSDVEFGPTNKSEVSRFLNDVAWNKTPLGSYVAVQREVKEEKARLMRESMEEQDKERETEEAKLLNSLESDDDNEDVEMSDA
B2: Noc1p (recombinant, untagged) (natural protein)
chain: MSENNGNPLDLSSLRNKISSKLRDNNSKKAKKTHKGKDVKASSNSKKVNEDIRREALALGASEEDLKLIQGLSDDDDAKSEQEFDAVADEDADDKGFKNDLQNFMKNVGFDQHKLEDVDDDDIEEESTSSKESKIPAQEKEHAQSNIASSTIEKTSQESIDNGSEQEENTVEEANLSSDQEPESESAEKEKKEEKDGGLITQTTIISSDKLIIPYDKPWYEIPLDPQVGQNDDVEELSKEQIEKLFERGKQTLEADNQTYYEEFTKDSSQAKFMSQILSDGTLNDKISAVTLLIQDSPLHNTKSLETLVSYCGKKSRNSALQSLNALKDLFLNGLLPNRKLRYFKNQPGLSMMLNKKTLAIFYFEDYLKKLFFRVLEVLEVLSHDPIIHVRLQILNHVFDLLTNQPEQEFNLLRLGVNKIGDIDSKVSSKASYLLLKLEQAHPNMKSIVIDAIVDIALRPNADYHTTYYSVITLNQTILKRSEDSVANKLVKTYFTLFEKFLINTDKDNTNGVVKSNSKSYEEKRKKNFKKGKHGGKSVKIEKTENEVLDEKNSKLFSALLTGINRAFPFAQIPASVYEVHMETLFKITHSSNFNTSIQALVLINQVTVKAKLNSDRYYRTLYESLFDPRLVNSSKQGIYLNLLYKSLKQDALNVERVEAFVKRILQVCSHWLNVGTITGFFFLLIQLAKTVPQIKNLLTNTPVDYEYESDAEEEQGDKDIKRKEYDGRKRDPKFANAEKSSLWEINNFINHFHPTVKTYANAYVTGETEQIAKPDLGLFTLSHFLDRFVYRSAKQTNTARGTSIMQPLFSGSRVNDSVLVKASDIMHDQGPVNTEDWLTKKVEDIKPEDKFFYQYFTTKKTADGKGKKSNKASNFDSDDEMDENEIWSALVKSRPDVEDDSDDSELDFAEDDFSDSTSDDEPKLDAIDDEDAKSEGSQESDQEEGLDEDIFYSFDGEQDNSDKKRSFAESSEEDESSEEEKEEEENKEVSAKRAKKKQRKNMLKSLPVFASADDYAQYLDQDSD

The target in test [1] is B2. Kind of test: SEC. (In general: SEC sorts molecules by how far they enter the pores of the column.)
The target in a further test is HA-Rrp5p (S. cerevisiae, UniProt Q05022 1-1729). The test can be described thus: SEC.
HA-Rrp5p, sequence (Q05022 whole entry): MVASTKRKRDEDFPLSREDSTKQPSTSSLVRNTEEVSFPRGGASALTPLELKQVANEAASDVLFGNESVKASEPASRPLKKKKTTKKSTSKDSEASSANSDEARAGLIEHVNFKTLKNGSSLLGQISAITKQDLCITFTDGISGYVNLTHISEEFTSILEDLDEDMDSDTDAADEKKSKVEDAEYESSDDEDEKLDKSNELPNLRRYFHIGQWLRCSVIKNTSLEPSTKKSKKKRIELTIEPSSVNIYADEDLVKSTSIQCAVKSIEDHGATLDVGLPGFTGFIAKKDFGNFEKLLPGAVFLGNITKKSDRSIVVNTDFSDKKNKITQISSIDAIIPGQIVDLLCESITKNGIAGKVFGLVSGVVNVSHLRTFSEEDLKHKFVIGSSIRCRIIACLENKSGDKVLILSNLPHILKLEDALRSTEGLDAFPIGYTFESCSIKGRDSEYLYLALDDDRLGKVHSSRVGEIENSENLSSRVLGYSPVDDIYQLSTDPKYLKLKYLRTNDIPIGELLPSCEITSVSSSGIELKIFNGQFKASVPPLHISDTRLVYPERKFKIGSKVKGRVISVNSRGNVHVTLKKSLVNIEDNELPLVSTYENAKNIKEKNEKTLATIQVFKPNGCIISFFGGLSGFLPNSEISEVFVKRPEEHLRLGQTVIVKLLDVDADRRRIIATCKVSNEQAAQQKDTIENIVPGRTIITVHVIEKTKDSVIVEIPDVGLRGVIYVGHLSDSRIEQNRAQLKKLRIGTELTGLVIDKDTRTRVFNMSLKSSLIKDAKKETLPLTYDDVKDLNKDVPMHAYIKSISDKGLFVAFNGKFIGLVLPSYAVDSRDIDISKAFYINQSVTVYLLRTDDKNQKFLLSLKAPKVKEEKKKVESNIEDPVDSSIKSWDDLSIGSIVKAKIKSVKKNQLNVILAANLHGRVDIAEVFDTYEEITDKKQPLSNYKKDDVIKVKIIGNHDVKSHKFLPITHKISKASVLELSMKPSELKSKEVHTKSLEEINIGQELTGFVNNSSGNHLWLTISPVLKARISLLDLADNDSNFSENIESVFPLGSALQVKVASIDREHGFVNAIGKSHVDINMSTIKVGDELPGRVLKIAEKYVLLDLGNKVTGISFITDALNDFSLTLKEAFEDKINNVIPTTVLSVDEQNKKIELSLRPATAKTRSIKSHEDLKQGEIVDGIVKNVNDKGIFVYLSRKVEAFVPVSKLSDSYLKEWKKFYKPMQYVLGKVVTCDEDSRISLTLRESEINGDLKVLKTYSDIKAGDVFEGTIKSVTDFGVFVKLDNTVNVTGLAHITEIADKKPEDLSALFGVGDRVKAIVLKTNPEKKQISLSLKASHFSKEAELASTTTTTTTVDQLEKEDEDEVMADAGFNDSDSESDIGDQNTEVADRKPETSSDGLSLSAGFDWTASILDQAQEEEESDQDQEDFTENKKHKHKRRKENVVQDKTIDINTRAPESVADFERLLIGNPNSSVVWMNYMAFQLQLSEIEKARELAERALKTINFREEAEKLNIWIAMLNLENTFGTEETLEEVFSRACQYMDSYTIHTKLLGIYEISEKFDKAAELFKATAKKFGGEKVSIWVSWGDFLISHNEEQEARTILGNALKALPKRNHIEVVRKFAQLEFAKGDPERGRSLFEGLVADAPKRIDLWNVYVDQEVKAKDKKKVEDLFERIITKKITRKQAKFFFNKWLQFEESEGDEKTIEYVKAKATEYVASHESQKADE

As for B1, the binding result in test [1] was “binds”.

For B2, in the test with HA-Rrp5p, the binding result was “binds”.
